Primed or numbered codes have the meaning given here. Ends that are not written are not given here. bbDTPA = DTPA chelating ligand bonded through a carbon of its ethylene backbone; bbDTPA″ = DTPA chelating ligand bound through a backbone ethylene carbon
Columns and labels:
[1] = Aggregation / gel formation behaviour in aqueous solution; type: physicochemical
Protocol: EP1272L (0.0842 g) was suspended in 2 mL water. To this were added 160 μL 1N NaOH, bringing the pH of the solution to 7.5. The volume was taken to 5 mL with addition of water and the solution gently swirled until all solids were dissolved. The chelatables were monitored by titration using xylenol orange as an indicator for free gadolinium. Following titration, 86.4 μL of 241 mM stock solution of GdCl3 was added to the solution with stirring followed by 60 μL 1N NaOH. Low mass impurities were removed from the solution by centrifugation over a 0.02 μm anapore membrane (Vecta-Spin). This was followed by resuspension in 20 mL of water and filtration over a 5 μm (Durapore, low protein binding) syringe filter frit. At concentrations greater than 0.5 mM, EP1272L became a non-flowing viscous gel.
As described in Examples 1-8, a self-assembling peptide having the sequence AEAEAKAKAEAEAKAK (SEQ ID NO: 1) was chemically modified to include a metal binding moiety (an organic chelating ligand) via a glycine linker to the N-terminus of the peptide; see EP1272L in FIG. 3. Modified self-assembling peptides having the same metal binding moiety at the N-terminus and further including acidic moieties at the C-terminus of the peptide were also made (see EP 1593L and EP1594L in FIG. 3).

[2] = Relaxivity measurements in PBS (T1, inversion recovery); type: physicochemical
Text: First, solutions of EP 1272L (FW=2,243 Da) were concentrated and purified by centrifugation in a filter device with a nominal molecular weight limit of 300,000 Da. The formation of high molecular weight aggregates allowed EP1272L to be retained by the filter device. […] Third, SEC-LS column retention and light scattering measurements of EP1272L were consistent with a large species having a mass distribution of 4×10^6 to 13×10^6 Da, and a hydrodynamic radius in the range of 155 nm to 210 nm.
Relaxivity measurements were made in PBS. A relaxivity titration consisting of sequential additions of EP1272L (complexed to Gd(III)) to a tube containing approximately 0.6 mL of PBS was performed. Following each addition of EP1272, the sample was thoroughly mixed by manual agitation and the temperature allowed to equilibrate for 10 minutes at 37±2° C. prior to T1 determination. The longitudinal (T1) relaxation time was determined by use of the inversion recovery pulse sequence and fitting the intensity data to an exponential decay. Measurements at 20 MHz were made using a Bruker Minispec PC 120/125/Vts nuclear magnetic resonance process analyzer. The temperature was regulated with a Haake D8-GH circulating bath at 37±2° C. Measurements at 64.5 MHz were made using a Varian XL300 adjusted to a field strength of 1.5 T with a broad band variable temperature probe tuned to 64.5 MHz. The relaxivity of EP1272 at 0.5 T and 1.5 T were 24.9 mM^−1s^−1 and 21.0 mM^−1s^−1 respectively. The relaxivity of EP1593 at 0.5 T was assessed in a similar manner and was 19.9 mM^−1s^−1. The relaxivity of EP1594 was assessed in a similar manner at 0.5 T and was 22.0 mM^−1s^−1.

[3] = target: streptavidin magnetic beads (Streptomyces avidinii, UniProt P22629); experiment: Avidin affinity assay: capture by streptavidin magnetic beads, quantified by gadolinium ICP; type: binding; details: capture by streptavidin-coated beads, FIG. 8
streptavidin magnetic beads, sequence (P22629 25-183): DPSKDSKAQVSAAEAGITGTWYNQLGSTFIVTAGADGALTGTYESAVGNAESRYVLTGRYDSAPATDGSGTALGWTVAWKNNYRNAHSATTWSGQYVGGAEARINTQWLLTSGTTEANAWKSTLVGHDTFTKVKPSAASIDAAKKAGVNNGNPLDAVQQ
Protocol: Two self-assembling peptides comprising target binding moieties were prepared (FIG. 7). EP1595 contained a C-terminal biotin target binding moiety; EP 1596 contained a C-terminal aromatic target binding moiety (phenylundecane).
EP1272L aggregates were targeted to avidin by incorporation of a biotinylated peptide (e.g., an assembling peptide containing a target binding moiety (EP1595)) into the aggregates. To 70 μL of a 1.54 mM stock solution of EP1272L was added varying amounts of EP1595. The pH was then reduced to 1.5 by addition of 1N HCl to induce mixing of the peptides. The solution was neutralized by addition of 1N NaOH and the volume brought to 500 μL with addition of water. Aggregates containing 20% biotinylated peptide (5:1 ratio of EP1272 to EP1595), 4% biotinylated-peptide (25:1 ratio), and 0.5% biotinylated peptide (200:1) were prepared.
EP1272L aggregates containing the phenylundecane substituted peptide, EP1596, in a 10:1 ratio were prepared as described above.
The three EP1595/EP1272 formulations, one EP1596/EP1272 formulation, and an EP1272 formulation were assayed for affinity to streptavidin magnetic beads. Each sample was diluted so as to maintain a constant ratio of biotinylated peptide and streptavidin binding sites in the assay. Solutions without biotin were treated as though they contained 0.5% EP1595. […] The extent of capture was quantified by gadolinium ICP.

With “AEAEAKAKAEAEAKAK (Targeted aggregate peptide) [reference compound]” the “aggregation behaviour (macroscopic membrane formation)” value (“aggregation behaviour” for short) [1] was “tended to form macroscopic membranes”.
“EP1594: EP1594L complexed to Gd(III) (GAEAEAKAKAEAEAKAK)” showed a relaxivity ([2]; 0.5 T (20 MHz), 37±2° C.) of 22.0 mM⁻¹ s⁻¹.
With “EP1593L: self-assembling peptide having a covalently attached metal binding moiety (bbDTPA) and an acidic group at the C-terminus ({bbDTPA″}-GAEAEAKAKAEAEAKAK; also: acidic group at C-terminus, not given here)” the “aggregation behaviour” value [1] was “tended to aggregate, but did not form macroscopic membranes”.
For “EP1272L: self-assembling peptide AEAEAKAKAEAEAKAK (SEQ ID NO: 1) with bbDTPA chelating ligand via a glycine linker at the N-terminus (bbDTPA-GAEAEAKAKAEAEAKAK)”, the “affinity for streptavidin beads” value [3] was “substantially less affinity for streptavidin beads”, the relaxivity ([2]; 0.47 T) was 25 mM⁻¹ s⁻¹ and the relaxivity ([2]; 1.5 T (64.5 MHz), 37±2° C.) was 21 mM⁻¹ s⁻¹. The “aggregation behaviour” value [1] was “tended to aggregate, but did not form macroscopic membranes” and the “concentration above which a non-flowing viscous gel forms” value ([1]; aqueous solution after complexing with Gd(III)) was “greater than 0.5 mM”.
“EP1272: EP1272L complexed to Gd(III) (GAEAEAKAKAEAEAKAK)” showed a relaxivity ([2]; 0.5 T (20 MHz), 37±2° C.) of 24.9 mM⁻¹ s⁻¹ and a relaxivity ([2]; 1.5 T (64.5 MHz), 37±2° C.) of 21.0 mM⁻¹ s⁻¹.
In the case of “EP1594L: self-assembling peptide having a covalently attached metal binding moiety (bbDTPA) and an acidic group at the C-terminus ({bbDTPA″}-GAEAEAKAKAEAEAKAK; also: acidic group at C-terminus, not given here)”, the “aggregation behaviour” value [1] is reported as “tended to aggregate, but did not form macroscopic membranes”.
For “EP1593: EP1593L complexed to Gd(III) (GAEAEAKAKAEAEAKAK)”, the relaxivity ([2]; 0.5 T (20 MHz), 37±2° C.) was 19.9 mM⁻¹ s⁻¹.

From patent US20040204561A1, “Peptide aggregates” (priority 2002, published 2004)
